Where a chain is given by its changes, count along the chain named.
How the values were obtained:
[1] = target: T1, human Tim3 on HEK293F cells (human, UniProt Q8TDQ0 22-301); test: flow cytometry, transfected HEK293F cells
T1 construct: whole, on cells
T1 sequence (looked up): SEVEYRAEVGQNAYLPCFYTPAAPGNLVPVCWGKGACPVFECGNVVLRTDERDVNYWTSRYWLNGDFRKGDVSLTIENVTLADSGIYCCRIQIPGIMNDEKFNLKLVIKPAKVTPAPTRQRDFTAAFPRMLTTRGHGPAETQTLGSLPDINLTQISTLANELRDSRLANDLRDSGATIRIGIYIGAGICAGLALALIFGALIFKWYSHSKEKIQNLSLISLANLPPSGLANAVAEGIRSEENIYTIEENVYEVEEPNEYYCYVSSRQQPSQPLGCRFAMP
Method: (§1) Antibody selectivity was next examined. Human CTLA4, PD1, LAG3, Tim3, B7H3, CD95, TNFR1, OX40, CD40, PD-L1, BLTA, VISTA, PDL2, ICOS and B7H4 were transiently overexpressed on the surface of HEK293F cells. Transfected cells were washed in pre-chilled 1×PBSA buffer (1.76 mM KH2PO4, 10.14 mM Na2HPO4.12H2O, 2.68 mM KCl, 136.89 mM NaCl and 1% BSA), then incubated with 100 nM test antibodies for 1 hour on ice. Cells were washed once with staining buffer, and Alexa Fluor® 647 conjugated mouse anti-human FC antibodies were added and incubated for 30 minutes on ice, protected from light. Samples were washed once with staining buffer prior to analysis by flow cytometry.

[2] = target: T2, human B7H3 on HEK293F cells (human, UniProt Q5ZPR3 29-534); test: flow cytometry, transfected HEK293F cells
T2 construct: whole, on cells
T2 sequence (looked up): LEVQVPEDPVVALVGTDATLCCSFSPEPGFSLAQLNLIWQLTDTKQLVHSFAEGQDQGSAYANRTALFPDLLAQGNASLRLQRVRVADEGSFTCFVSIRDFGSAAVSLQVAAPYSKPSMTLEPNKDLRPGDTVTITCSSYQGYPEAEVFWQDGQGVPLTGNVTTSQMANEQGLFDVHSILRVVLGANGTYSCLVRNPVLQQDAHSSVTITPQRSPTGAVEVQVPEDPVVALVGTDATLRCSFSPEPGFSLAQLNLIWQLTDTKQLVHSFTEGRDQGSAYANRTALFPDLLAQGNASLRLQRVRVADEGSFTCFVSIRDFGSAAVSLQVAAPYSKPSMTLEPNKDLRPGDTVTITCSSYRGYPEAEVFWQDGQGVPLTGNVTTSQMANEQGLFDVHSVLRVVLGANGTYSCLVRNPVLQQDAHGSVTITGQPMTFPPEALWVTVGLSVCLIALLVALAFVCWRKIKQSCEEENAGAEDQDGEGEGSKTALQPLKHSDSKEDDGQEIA
Method: as §1

[3] = target: T2, human B7H3 on HEK293F cells; test: flow cytometry, transfected HEK293F cells [Cont.]
Method: as §1

[4] = target: T3, human CD95 on HEK293F cells (human, UniProt P25445 26-335); test: flow cytometry, transfected HEK293F cells
T3 construct: whole, on cells
T3 sequence (looked up): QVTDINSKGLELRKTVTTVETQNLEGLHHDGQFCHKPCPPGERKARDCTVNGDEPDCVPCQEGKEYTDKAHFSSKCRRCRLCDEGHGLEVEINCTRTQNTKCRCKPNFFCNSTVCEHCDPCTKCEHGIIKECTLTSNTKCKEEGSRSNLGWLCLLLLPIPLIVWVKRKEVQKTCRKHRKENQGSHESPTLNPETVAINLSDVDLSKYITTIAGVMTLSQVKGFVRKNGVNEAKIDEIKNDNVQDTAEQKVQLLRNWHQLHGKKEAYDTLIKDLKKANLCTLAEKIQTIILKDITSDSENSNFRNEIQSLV
Method: as §1

[5] = target: T4, human TNFR1 on HEK293F cells (human, UniProt P19438 30-455); test: flow cytometry, transfected HEK293F cells
T4 construct: whole, on cells; also called CD120a
T4 sequence (looked up): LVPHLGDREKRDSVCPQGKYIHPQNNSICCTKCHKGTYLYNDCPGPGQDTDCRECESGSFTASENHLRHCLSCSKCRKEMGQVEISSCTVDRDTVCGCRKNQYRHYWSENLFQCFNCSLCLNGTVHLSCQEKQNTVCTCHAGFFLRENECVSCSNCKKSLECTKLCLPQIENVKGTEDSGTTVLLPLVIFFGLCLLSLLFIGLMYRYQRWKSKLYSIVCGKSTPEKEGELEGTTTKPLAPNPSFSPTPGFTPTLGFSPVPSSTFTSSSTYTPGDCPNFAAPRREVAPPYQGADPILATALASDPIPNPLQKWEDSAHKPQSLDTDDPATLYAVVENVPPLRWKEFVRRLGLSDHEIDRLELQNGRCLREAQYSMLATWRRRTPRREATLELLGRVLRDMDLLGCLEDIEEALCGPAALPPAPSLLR
Method: as §1

[6] = target: T5, human OX40 on HEK293F cells (human, UniProt P43489 29-277); test: flow cytometry, transfected HEK293F cells
T5 construct: whole, on cells
T5 sequence (looked up): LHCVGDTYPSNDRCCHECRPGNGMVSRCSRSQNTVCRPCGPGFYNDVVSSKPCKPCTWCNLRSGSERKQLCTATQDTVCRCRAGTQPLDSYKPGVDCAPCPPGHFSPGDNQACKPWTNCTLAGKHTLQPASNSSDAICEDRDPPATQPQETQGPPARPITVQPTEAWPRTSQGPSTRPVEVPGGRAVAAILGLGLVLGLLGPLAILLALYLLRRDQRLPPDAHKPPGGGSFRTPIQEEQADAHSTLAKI
Method: as §1

B1: TY21691 (antibody, V domains shown)
VH: EVQLVESGGGLVQPGGSLRLSCAASGFTFSDYAIHWVRQAPGKGLEWIGIISPSGGSTKYAQKFQGRVTISRDNSKNTLYLQLNSLRAEDTAVYYCARLGYGYFDVWGQGTLVTVSS
VL: DIQLTQSPSSLSASVGDRVTITCRASQSVDFYGISFLHWYQQKPGKAPKLLIYDASSLESGVPSRFSGSGSGTDFTLTISSLQPEDFATYYCVQALQLPLTFGQGTKVEIK
notes: human IgG1 (hIgG1) from Fab hit B15736
binding result [1]: no binding (tested: 100 nM)
binding result [2]: no binding (tested: 100 nM)

B2: TY21687 (antibody, V domains shown)
VH: EVQLVESGGGLVQPGGSLRLSCAASGFTFSGYAIHWVRQAPGKGLEWIGIISPSGGGTKYAQKFQGRVTISRDNSKNTLYLQLNSLRAEDTAVYYCARHPFAYWGQGTLVTVSS
VL: DIQLTQSPSSLSASVGDRVTITCRASQSVDFYGISFLDWYQQKPGKAPKLLIYDASNRATGIPSRFSGSGSGTDFTLTISSLQPEDFATYYCQQYVSSPPEYTFGQGTKVEIK
notes: human IgG1 (hIgG1) from Fab hit B15700
binding result [3]: no binding (tested: 100 nM)

B3: TY21585 (antibody, V domains shown)
VH: EVQLVESGGGLVQPGGSLRLSCAASGFTFSDYAIHWVRQAPGKGLEWIGIISPSSGSTNYAQKFQGRVTISRDNSKNTLYLQLNSLRAEDTAVYYCARDIHSGSSGYYYGFDVWGQGTLVTVSS
VL: B2 VL with Q27E, Y32F, D38A, Q94H, V96T, E101V
notes: human IgG1 (hIgG1) from Fab hit B15709
binding result [3]: no binding (tested: 100 nM)
binding result [4]: no binding (tested: 100 nM)
binding result [5]: no binding (tested: 100 nM)
binding result [6]: no binding (tested: 100 nM)

From patent publication US20190241662A1 (ADAGENE, published 2019)
